The experiment concerns the target T1, BioEase tag-fused SITH-1 protein (human herpes virus 6 (HHV-6), biotinylated in vivo (E. coli) within the N-terminal BioEase tag; residue not stated).
T1 construct: Fusion of the BioEase biotinylation tag (N-terminal) with HHV-6 SITH-1, expressed in E. coli BL21 (DE3); Used as a crude extract on blots, or captured on a TM2 plate; also called BioEase-SITH-1 fusion protein; biotinylated SITH-1
T1 chain: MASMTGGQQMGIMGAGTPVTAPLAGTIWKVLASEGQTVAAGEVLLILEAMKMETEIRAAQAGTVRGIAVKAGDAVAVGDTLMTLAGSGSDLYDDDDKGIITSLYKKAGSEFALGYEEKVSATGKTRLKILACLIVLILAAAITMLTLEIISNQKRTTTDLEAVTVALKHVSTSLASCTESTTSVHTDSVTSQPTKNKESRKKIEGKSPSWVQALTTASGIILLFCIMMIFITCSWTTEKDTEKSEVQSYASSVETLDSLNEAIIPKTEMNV
The experiment in a line: capture of crude extract on TM2-coated microplate (binding through biotin).

B1: tamavidin 2 (other)
chain: MSDVQSSLTGTWYNELNSKMELTANKDGTLTGKYLSKVGDVYVPYPLSGRYNLQPPAGQGVALGWAVSWENSKIHSATTWSGQFFSESSPVILTQWLLSSSTARGDVWESTLVGNDSFTKTAPTEQQIAHAQLHCRAPRLK
notes: Purified TM2 immobilized on a New ELISA microplate; also called TM2; purified TM2
Turning to B1, the binding result is given as “binds”.

The values are drawn from patent US20120088313A1 (JAPAN TOBACCO, published 2012).
